Laboratory results reported in US20210246166A1 (Bayer, published 2021).
Numbered stars: 1 amine (or outer) side, 2 acyl side, 3 side chain; on linkers, the order of the positions; unused ones are H or OH. Bridge positions count the residues as written; N and C are the ends. Square brackets hold non-standard residues; d marks the D form. Ends that are not written are not given here. Freidinger's Lactam = (2S)-2-[(3R)-3-amino-2-oxopyrrolidin-1-yl]-4-methylpentanoic acid (Freidinger's lactam), CC(C)C[C@@H](C(=O)[*:2])N1CC[C@@H](N[*:1])C1=O; X10 = (2R)‑2‑amino‑3‑(trifluoromethylsulfanyl)propanoic acid, O=C([C@H](CSC(F)(F)F)N[*:1])[*:2]; X15 = (3S)‑2‑azaspiro(4.4)nonane‑3‑carboxylic acid, O=C([C@@H]1CC2(CCCC2)CN1[*:1])[*:2]; (R)‑Pyrrolidine‑3‑acetic acid = O=C(C[C@H]1CCN([*:1])C1)[*:2]; Ida = iminodiacetic acid, O=C(CN(CC(=O)[*:3])[*:1])[*:2]; Oic = O=C(O)[C@@H]1C[C@@H]2CCCC[C@@H]2N1; βPro(3R) = O=C([C@@H]1CCN([*:1])C1)[*:2]; tBuAla = CC(C)(C)C[C@H](N)C(=O)O; Pen = CC(C)(S)[C@H](N)C(=O)O; Orn = NCCC[C@H](N)C(=O)O; Sar = CNCC(=O)O

T1: recombinant rat MASP1 active protease (amino acids 302-704, C-terminal His Tag) (rat, UniProt Q8CHN8 302-704)
T1 sequence: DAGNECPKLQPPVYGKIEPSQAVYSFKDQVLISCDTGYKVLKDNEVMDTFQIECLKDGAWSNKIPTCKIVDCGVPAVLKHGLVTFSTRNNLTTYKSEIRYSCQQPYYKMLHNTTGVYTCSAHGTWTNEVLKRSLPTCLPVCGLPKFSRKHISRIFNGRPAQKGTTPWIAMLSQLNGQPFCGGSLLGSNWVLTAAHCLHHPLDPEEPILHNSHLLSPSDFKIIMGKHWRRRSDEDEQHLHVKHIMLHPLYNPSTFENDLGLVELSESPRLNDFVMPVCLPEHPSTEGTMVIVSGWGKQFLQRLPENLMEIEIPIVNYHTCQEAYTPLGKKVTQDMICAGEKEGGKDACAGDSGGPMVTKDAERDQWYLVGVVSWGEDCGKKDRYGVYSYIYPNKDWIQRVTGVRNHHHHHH

B1: Example 527: ((N-Me)G)-IC+SRSLP-(Oic)-I-(Pen)+IP-(Freidinger's Lactam)-OH (peptide)
peptide: [Sar]ICSRSLP[Oic]I[Pen]IP[Freidinger's Lactam]-OH
modifications: disulfide 3-11; N-terminus assumed
SMILES: CC[C@H](C)[C@H](NC(=O)CNC)C(=O)N[C@H]1CSSC(C)(C)[C@@H](C(=O)N[C@H](C(=O)N2CCC[C@H]2C(=O)N[C@@H]2CCN([C@@H](CC(C)C)C(=O)O)C2=O)[C@@H](C)CC)NC(=O)[C@H]([C@@H](C)CC)NC(=O)[C@@H]2C[C@@H]3CCCC[C@@H]3N2C(=O)[C@@H]2CCCN2C(=O)[C@H](CC(C)C)NC(=O)[C@H](CO)NC(=O)[C@H](CCCNC(=N)N)NC(=O)[C@H](CO)NC1=O
B2: Example 528: pIC+SRSLP-(Oic)-I-(Pen)+IP-(Ida)-OH (HCl salt) (peptide)
peptide: [dP]ICSRSLP[Oic]I[Pen]IP[Ida]-OH
modifications: disulfide 3-11; also: HCl salt
B3: Example 531: ((N-Me)G)-IC+SRS-((tBu)A)-P-((3S)-2-azaspiro[4.4]nonane-3-carboxylic acid)-I-(Pen)+IPD-OH (peptide)
peptide: [Sar]ICSRS[tBuAla]P[X15]I[Pen]IPD-OH
modifications: disulfide 3-11; N-terminus assumed
SMILES: CC[C@H](C)[C@H](NC(=O)CNC)C(=O)N[C@H]1CSSC(C)(C)[C@@H](C(=O)N[C@H](C(=O)N2CCC[C@H]2C(=O)N[C@@H](CC(=O)O)C(=O)O)[C@@H](C)CC)NC(=O)[C@H]([C@@H](C)CC)NC(=O)[C@@H]2CC3(CCCC3)CN2C(=O)[C@@H]2CCCN2C(=O)[C@H](CC(C)(C)C)NC(=O)[C@H](CO)NC(=O)[C@H](CCCNC(=N)N)NC(=O)[C@H](CO)NC1=O
B4: Example 530: ((N-Me)G)-IC+SRSLP-(Oic)-I-(Pen)+IP-((R)-Pyrrolidine-3-acetic acid)-OH (peptide)
peptide: [Sar]ICSRSLP[Oic]I[Pen]IP[(R)‑Pyrrolidine‑3‑acetic acid]-OH
modifications: disulfide 3-11; N-terminus assumed
SMILES: CC[C@H](C)[C@H](NC(=O)CNC)C(=O)N[C@H]1CSSC(C)(C)[C@@H](C(=O)N[C@H](C(=O)N2CCC[C@H]2C(=O)N2CC[C@H](CC(=O)O)C2)[C@@H](C)CC)NC(=O)[C@H]([C@@H](C)CC)NC(=O)[C@@H]2C[C@@H]3CCCC[C@@H]3N2C(=O)[C@@H]2CCCN2C(=O)[C@H](CC(C)C)NC(=O)[C@H](CO)NC(=O)[C@H](CCCNC(=N)N)NC(=O)[C@H](CO)NC1=O
B5: Example 532: ((N-Me)G)-IC+SRSLP-(Oic)-I-(Pen)+IP-((R)-Pyrrolidine-3-carboxylic acid)-OH (peptide)
peptide: [Sar]ICSRSLP[Oic]I[Pen]IP[βPro(3R)]-OH
modifications: disulfide 3-11; N-terminus assumed
SMILES: CC[C@H](C)[C@H](NC(=O)CNC)C(=O)N[C@H]1CSSC(C)(C)[C@@H](C(=O)N[C@H](C(=O)N2CCC[C@H]2C(=O)N2CC[C@@H](C(=O)O)C2)[C@@H](C)CC)NC(=O)[C@H]([C@@H](C)CC)NC(=O)[C@@H]2C[C@@H]3CCCC[C@@H]3N2C(=O)[C@@H]2CCCN2C(=O)[C@H](CC(C)C)NC(=O)[C@H](CO)NC(=O)[C@H](CCCNC(=N)N)NC(=O)[C@H](CO)NC1=O
B6: Example 529: (Orn)-IC+SRS-((2R)-2-amino-3-(trifluoromethylsulfanyl)propanoic acid)-PPI-(Pen)+IPD-OH (peptide)
peptide: [Orn]ICSRS[X10]PPI[Pen]IPD-OH
modifications: disulfide 3-11; N-terminus assumed
SMILES: CC[C@H](C)[C@H](NC(=O)[C@@H](N)CCCN)C(=O)N[C@H]1CSSC(C)(C)[C@@H](C(=O)N[C@H](C(=O)N2CCC[C@H]2C(=O)N[C@@H](CC(=O)O)C(=O)O)[C@@H](C)CC)NC(=O)[C@H]([C@@H](C)CC)NC(=O)[C@@H]2CCCN2C(=O)[C@@H]2CCCN2C(=O)[C@H](CSC(F)(F)F)NC(=O)[C@H](CO)NC(=O)[C@H](CCCNC(=N)N)NC(=O)[C@H](CO)NC1=O

These binders were tested against T1, recombinant rat MASP1 active protease … (assay: cell-based or functional assay).

rat MASP1 IC50 [nM]	Binder
240	B1
420	B2
26	B3
23.3	B4
24.2	B5
730	B6

The binders below were run against recombinant rat MASP2 active protease (amino acids 296-685, C-terminal His Tag) (rat, UniProt Q9JJS8 296-685) (assay: cell-based or functional assay).
Chain of recombinant rat MASP2 active protease (amino acids 296-685, C-terminal His Tag) (Q9JJS8 other isoform, or with tags, fused parts or gaps limits assumed): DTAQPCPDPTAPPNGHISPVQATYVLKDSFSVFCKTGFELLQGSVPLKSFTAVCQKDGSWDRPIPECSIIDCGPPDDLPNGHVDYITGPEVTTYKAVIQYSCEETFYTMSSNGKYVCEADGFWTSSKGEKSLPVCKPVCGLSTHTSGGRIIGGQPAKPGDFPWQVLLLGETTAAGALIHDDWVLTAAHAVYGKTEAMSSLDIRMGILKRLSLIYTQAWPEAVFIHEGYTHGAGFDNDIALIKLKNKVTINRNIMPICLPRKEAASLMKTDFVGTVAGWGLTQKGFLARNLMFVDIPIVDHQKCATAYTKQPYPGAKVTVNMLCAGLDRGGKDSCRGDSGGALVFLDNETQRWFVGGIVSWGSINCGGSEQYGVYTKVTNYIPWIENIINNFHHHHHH

rat MASP2 IC50 [nM]	Binder
42	B1
8.2	B2
74.1	B3
18.4	B4
17.6	B5
100	B6
